# Test results as given in patent US20260034234A1 (AGENSYS, published 2026).
# T1: 191P4D12 (human, wild type, on cells) (human, UniProt Q96NY8 32-510)
# T1 construct: 510 amino acid ORF expressed on PC3, RAT/Rat1(E) cells and present in cancer cell lines and tumor specimens; also called human 191P4D12; wild-type 191P4D12
# T1 sequence: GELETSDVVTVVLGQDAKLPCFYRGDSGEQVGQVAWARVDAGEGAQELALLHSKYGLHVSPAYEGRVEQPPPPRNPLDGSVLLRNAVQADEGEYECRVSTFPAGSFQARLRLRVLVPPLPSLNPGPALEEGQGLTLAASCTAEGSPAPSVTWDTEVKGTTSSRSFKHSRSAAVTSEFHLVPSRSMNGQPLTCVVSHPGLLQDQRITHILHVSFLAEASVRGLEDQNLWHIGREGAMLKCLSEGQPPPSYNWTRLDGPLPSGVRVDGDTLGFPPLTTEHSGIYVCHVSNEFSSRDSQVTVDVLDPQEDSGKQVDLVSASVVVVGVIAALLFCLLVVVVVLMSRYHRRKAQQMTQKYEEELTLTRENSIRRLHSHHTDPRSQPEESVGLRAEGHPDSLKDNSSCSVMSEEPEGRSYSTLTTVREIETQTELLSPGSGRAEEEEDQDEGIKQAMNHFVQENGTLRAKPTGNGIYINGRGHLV
# T2: Cynomolgus 191P4D12 (on PC3 cells) (cynomolgus monkey, UniProt A0A2K5WES1 32-510)
# T2 construct: also called PC3-Cynomolgus-191P4D12; Cyno ortholog
# T2 sequence: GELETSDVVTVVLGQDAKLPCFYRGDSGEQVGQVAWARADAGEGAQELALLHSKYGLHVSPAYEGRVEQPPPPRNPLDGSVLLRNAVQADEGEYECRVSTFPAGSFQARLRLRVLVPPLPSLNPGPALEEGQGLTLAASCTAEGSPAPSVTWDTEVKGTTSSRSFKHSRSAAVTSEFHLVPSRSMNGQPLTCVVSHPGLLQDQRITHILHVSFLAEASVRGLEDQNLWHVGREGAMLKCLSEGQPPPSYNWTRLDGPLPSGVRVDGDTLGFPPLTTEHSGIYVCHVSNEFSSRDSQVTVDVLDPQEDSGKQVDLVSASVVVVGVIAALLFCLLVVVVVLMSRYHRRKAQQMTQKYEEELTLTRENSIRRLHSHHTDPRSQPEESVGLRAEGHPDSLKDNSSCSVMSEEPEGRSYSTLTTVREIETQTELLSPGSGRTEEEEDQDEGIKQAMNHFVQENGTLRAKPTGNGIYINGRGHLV
# T3: purified recombinant 191P4D12 (ECD amino acids 1-348) (human, UniProt Q96NY8 32-348)
# T3 construct: Range as printed
# T3 sequence: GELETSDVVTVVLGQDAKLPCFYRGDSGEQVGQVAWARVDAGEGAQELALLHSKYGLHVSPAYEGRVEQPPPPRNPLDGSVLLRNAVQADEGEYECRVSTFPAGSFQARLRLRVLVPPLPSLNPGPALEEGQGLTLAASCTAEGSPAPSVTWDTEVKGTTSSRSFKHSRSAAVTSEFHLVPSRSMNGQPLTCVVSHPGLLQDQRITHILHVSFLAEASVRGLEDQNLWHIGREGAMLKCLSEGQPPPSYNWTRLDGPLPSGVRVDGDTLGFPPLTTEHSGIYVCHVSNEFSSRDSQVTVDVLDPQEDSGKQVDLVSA
# T4: Murine ortholog of 191P4D12, N90S mutant (on PC3 cells) (mouse, UniProt Q8R007 31-508)
# T4 construct: whole, on cells; also called murine mutant ortholog
# T4 sequence (looked up): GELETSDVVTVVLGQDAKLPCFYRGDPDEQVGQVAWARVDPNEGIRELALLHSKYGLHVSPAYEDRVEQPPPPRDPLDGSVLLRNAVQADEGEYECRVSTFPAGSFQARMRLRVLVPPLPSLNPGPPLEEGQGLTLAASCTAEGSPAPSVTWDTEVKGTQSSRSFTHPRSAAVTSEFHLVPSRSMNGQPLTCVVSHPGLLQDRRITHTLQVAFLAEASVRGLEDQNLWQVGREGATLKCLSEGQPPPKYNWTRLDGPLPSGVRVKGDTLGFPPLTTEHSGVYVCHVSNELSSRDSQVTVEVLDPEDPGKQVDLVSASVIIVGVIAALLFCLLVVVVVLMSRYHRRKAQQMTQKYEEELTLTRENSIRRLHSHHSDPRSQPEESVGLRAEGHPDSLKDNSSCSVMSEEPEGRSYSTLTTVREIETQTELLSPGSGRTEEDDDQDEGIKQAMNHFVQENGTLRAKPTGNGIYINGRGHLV
# Tests used:
# [1] = target: T1, 191P4D12 (human, wild type, on cells); experiment: FACS on PC3-191P4D12 cells
# Excerpt: (§1) The 191P4D12 protein of human, cynomolgus, rat and murine origin was overexpressed recombinantly in a PC3 cell line to determine cross-reactivity of Ha22-2(2,4)6.1 to these orthologs. It was shown that Ha22-2(2,4)6.1 strongly cross-reacts with cynomolgus and rat orthologs of 191P4D12 (FIG. 23).
# [2] = target: T2, Cynomolgus 191P4D12 (on PC3 cells); experiment: FACS on PC3 cells expressing the cyno ortholog
# Excerpt: as §1
# [3] = target: T3, purified recombinant 191P4D12 (ECD …); experiment: SPR (Biacore), antibody captured by anti-human Fc, 191P4D12 ECD as analyte
# Method: The affinity of Ha22-2(2,4)6.1 MAb and Ha22-2(2,4)6.1vcMMAE to purified recombinant 191P4D12 (ECD amino acids 1-348) was performed by Surface Plasmon Resonance (SPR) (BIAcore). Briefly, goat-anti-human Fcγ polyclonal Abs (Jackson Immuno Research Labs, Inc.) were covalently immobilized on the surface of a CM5 sensor chip (Biacore). Purified Ha22-2(2,4)6.1 MAb or Ha22-2(2,4)6.1vcMMAE were then captured on the surface of said chip. On average, approximately 300 RUs of test Ha22-2(2,4)6.1 MAb or Ha22-2(2,4)6.1vcMMAE was captured in every cycle. Subsequently, a series of five (5) to six (6) dilutions of recombinant 191P4D12 (ECD amino acids 1-348) ranging from 1 nM to 100 nM was injected over such surface to generate binding curves (sensograms) that were processed and globally fit to a 1:1 interaction model using BIAevaluation 3.2 and CLAMP software (Myszka and Morton, 1998) (FIG. 22). Table V summarizes association and dissociation rate constants as well as affinities of Ha22-2(2,4)6.1 MAb and Ha22-2(2,4)6.1 vcMMAE to recombinant 191P4D12 (ECD amino acids 1-348).
# [4] = target: T1, 191P4D12 (human, wild type, on cells); experiment: FACS titration of Ha22-2(2,4)6.1 on PC3 cells expressing 191P4D12
# [5] = target: T4, Murine ortholog of 191P4D12, N90S …; experiment: FACS titration of Ha22-2(2,4)6.1 on PC3 cells expressing mouse 191P4D12 N90S
binder,measurement,setting,value
"Ha22-2(2,4)6.1 MAb (antibody, human IgG1, kappa, V domains shown, Fully human IgG1 kappa from XenoMouse; Used biotinylated in the Western blot; also called 191P4D12 MAb Ha22-2(2,4)6.1; Ha22-(2,4)6.1 MAb) VH: EVQLVESGGGLVQPGGSLRLSCAASGFTFSSYNMNWVRQAPGKGLEWVSYISSSSSTIYYADSVKGRFTISRDNAKNSLSLQMNSLRDEDTAVYYCARAYYYGMDVWGQGTTVTVSS VL: DIQMTQSPSSVSASVGDRVTITCRASQGISGWLAWYQQKPGKAPKFLIYAASTLQSGVPSRFSGSGSGTDFTLTISSLQPEDFATYYCQQANSFPPTFGGGTKVEIKR",EC50,[1],0.28 nM
same,EC50,[2],0.3 nM
same,Kd,[3],16 nM
same,koff,[3],0.0058 s⁻¹
same,kon,[3],380000 M⁻¹ s⁻¹
same,EC50 (read off the curve),[4],~0.6 nM
same,EC50 (read off the curve),[5],~0.4 nM
